From US20240287154A1, “MC3R AGONIST PEPTIDES” (The Regents of the University of Michigan, priority 2021, published 2024)
Non-standard residues stand in square brackets, D forms with d. Nle = CCCC[C@H](N)C(=O)O; R1 = not defined here

B1: CTX-1124 (peptide)
peptide: YVXAHFRWDRFG
modifications: NMe-Tyr at 1; Nle at 3; D-Ala at 4; D-Trp at 8
B2: CTX-1123 (peptide)
peptide: Ac-[Nle][dA]HFR[dW]D-NH2
SMILES: CCCC[C@H](NC(C)=O)C(=O)N[C@H](C)C(=O)N[C@@H](Cc1c[nH]cn1)C(=O)N[C@@H](Cc1ccccc1)C(=O)N[C@@H](CCCNC(=N)N)C(=O)N[C@H](Cc1c[nH]c2ccccc12)C(=O)N[C@@H](CC(=O)O)C(N)=O
B3: CTX-1136 (peptide)
peptide: YVXFHFRWDRFG
modifications: Nle at 3; D-Phe at 4; D-Trp at 8
B4: CTX-1161 (peptide)
peptide: Ac-[Nle][dA]HFR[dW]DR[dF]K(R1)-OH
modifications: reading uncertain
B5: CTX-1118 (peptide)
peptide: YVXAHFRWDRFG
modifications: Nle at 3; D-Ala at 4; D-Trp at 8; C-terminal amide
B6: CTX-1146 (peptide)
peptide: Ac-[Nle][dA]HFR[dW]D[dR]FG-OH
SMILES: CCCC[C@H](NC(C)=O)C(=O)N[C@H](C)C(=O)N[C@@H](Cc1c[nH]cn1)C(=O)N[C@@H](Cc1ccccc1)C(=O)N[C@@H](CCCNC(=N)N)C(=O)N[C@H](Cc1c[nH]c2ccccc12)C(=O)N[C@@H](CC(=O)O)C(=O)N[C@H](CCCNC(=N)N)C(=O)N[C@@H](Cc1ccccc1)C(=O)NCC(=O)O
B7: CTX-1149 (R1, SEQ ID NO 66) (peptide)
peptide: R1-V[Nle][dA]HFR[dW]DRFG-OH
modifications: reading uncertain
B8: CTX-1181 (peptide)
peptide: Ac-[Nle][dV]HFR[dW]DRFG-OH
SMILES: CCCC[C@H](NC(C)=O)C(=O)N[C@@H](C(=O)N[C@@H](Cc1c[nH]cn1)C(=O)N[C@@H](Cc1ccccc1)C(=O)N[C@@H](CCCNC(=N)N)C(=O)N[C@H](Cc1c[nH]c2ccccc12)C(=O)N[C@@H](CC(=O)O)C(=O)N[C@@H](CCCNC(=N)N)C(=O)N[C@@H](Cc1ccccc1)C(=O)NCC(=O)O)C(C)C
B9: CTX-1119 (peptide)
peptide: H-YV[Nle][dA]HFR[dW]DRF-NH2
SMILES: CCCC[C@H](NC(=O)[C@@H](NC(=O)[C@@H](N)Cc1ccc(O)cc1)C(C)C)C(=O)N[C@H](C)C(=O)N[C@@H](Cc1c[nH]cn1)C(=O)N[C@@H](Cc1ccccc1)C(=O)N[C@@H](CCCNC(=N)N)C(=O)N[C@H](Cc1c[nH]c2ccccc12)C(=O)N[C@@H](CC(=O)O)C(=O)N[C@@H](CCCNC(=N)N)C(=O)N[C@@H](Cc1ccccc1)C(N)=O
B10: CTX-1113 (peptide)
peptide: Ac-TGH[dF]R[dW]D-NH2
SMILES: CC(=O)N[C@H](C(=O)NCC(=O)N[C@@H](Cc1c[nH]cn1)C(=O)N[C@H](Cc1ccccc1)C(=O)N[C@@H](CCCNC(=N)N)C(=O)N[C@H](Cc1c[nH]c2ccccc12)C(=O)N[C@@H](CC(=O)O)C(N)=O)[C@@H](C)O
B11: CTX-1133 (peptide)
peptide: YVXAHFRWDRFG
modifications: Nle at 3; D-Trp at 8

These binders were tested against human MC3R (human, UniProt P41968 1-323) (assay: cell-based or functional assay).
Sequence of human MC3R (P41968 whole entry): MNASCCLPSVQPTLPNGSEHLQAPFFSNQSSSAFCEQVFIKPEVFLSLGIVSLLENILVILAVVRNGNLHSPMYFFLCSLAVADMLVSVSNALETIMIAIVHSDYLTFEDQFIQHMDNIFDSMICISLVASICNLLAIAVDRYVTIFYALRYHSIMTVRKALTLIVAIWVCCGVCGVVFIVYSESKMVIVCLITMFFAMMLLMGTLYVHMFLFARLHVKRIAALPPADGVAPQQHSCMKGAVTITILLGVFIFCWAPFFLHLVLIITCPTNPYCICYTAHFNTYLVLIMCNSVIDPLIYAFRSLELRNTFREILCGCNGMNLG

Binder	MC3R cAMP (EC50) [nM]	MC3R selectivity (relative to MC4R)
B1	1.7	69
B2	213	28
B3	1.9	37
B4	952	22
B5	1.2	59
B6	170	–
B7	710	6800
B8	102	718
B9	1.9	24
B10	4430	0.4
B11	1.4	7.4
